Laboratory results published in patent US8883410B2, “Method for determining the stability of organic methyleneamines in the presence of semicarbazide-sensitive amine oxidase” (Sanofi, priority 2007, dated 2014).

Target: T1, recombinant human SSAO (Homo sapiens, UniProt Q16853)
T1 construct: expressed in transfected cells; cell lysate
T1 sequence (Q16853 1-763): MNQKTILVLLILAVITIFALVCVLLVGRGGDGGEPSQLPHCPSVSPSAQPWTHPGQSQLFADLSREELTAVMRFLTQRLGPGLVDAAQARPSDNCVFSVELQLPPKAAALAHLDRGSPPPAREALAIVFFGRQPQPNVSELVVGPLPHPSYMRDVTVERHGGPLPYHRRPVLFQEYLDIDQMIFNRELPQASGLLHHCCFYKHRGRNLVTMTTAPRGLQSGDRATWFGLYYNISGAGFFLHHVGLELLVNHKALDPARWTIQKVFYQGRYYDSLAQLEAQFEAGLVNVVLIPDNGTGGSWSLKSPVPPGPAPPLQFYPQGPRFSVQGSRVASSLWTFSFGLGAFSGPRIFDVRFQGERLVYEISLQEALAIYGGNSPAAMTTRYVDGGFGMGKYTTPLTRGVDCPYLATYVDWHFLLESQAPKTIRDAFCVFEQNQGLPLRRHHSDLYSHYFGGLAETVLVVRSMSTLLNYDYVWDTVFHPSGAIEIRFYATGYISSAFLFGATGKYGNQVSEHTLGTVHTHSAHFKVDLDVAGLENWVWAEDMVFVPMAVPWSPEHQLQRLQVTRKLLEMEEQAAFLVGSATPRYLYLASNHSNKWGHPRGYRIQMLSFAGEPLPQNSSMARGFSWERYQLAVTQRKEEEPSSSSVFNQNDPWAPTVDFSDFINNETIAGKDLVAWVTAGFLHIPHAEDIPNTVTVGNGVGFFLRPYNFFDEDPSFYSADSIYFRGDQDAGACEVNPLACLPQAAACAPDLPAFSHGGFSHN
Test: Amplex Red assay of specific activity of recombinant human SSAO
Assay type: biochemical
Description: The Amplex Red assay (a commercially available assay), was used initially to measure the specific activity of the recombinant human SSAO. Amplex Red is a colorless and nonfluorescent derivative of dihydroresorufin. In the presence of amine oxidases and SSAO, the Amplex Red reacts with H2O2 to produce the highly fluorescent product, resorufin. Resorufin has an excitation maximum at 563 nm and emission maximum at 587 nm and the assay can be quantified by reading the microtitre plate at 587 nm. The specific activity of recombinant SSAO was determined to be 280 pmol/min/mg protein and this was determined to be equivalent to the specific activity of SSAO found in human lung tissue. For subsequent assays to profile compounds in the LC/MS/MS assay, recombinant human SSAO (rhSSAO) was used at this defined specific activity.

B1: recombinant SSAO: recombinant human SSAO, full-length untagged, in CHO Flp-In cell lysate (protein, UniProt Q16853 1-763, looked up)
chain: MNQKTILVLLILAVITIFALVCVLLVGRGGDGGEPSQLPHCPSVSPSAQPWTHPGQSQLFADLSREELTAVMRFLTQRLGPGLVDAAQARPSDNCVFSVELQLPPKAAALAHLDRGSPPPAREALAIVFFGRQPQPNVSELVVGPLPHPSYMRDVTVERHGGPLPYHRRPVLFQEYLDIDQMIFNRELPQASGLLHHCCFYKHRGRNLVTMTTAPRGLQSGDRATWFGLYYNISGAGFFLHHVGLELLVNHKALDPARWTIQKVFYQGRYYDSLAQLEAQFEAGLVNVVLIPDNGTGGSWSLKSPVPPGPAPPLQFYPQGPRFSVQGSRVASSLWTFSFGLGAFSGPRIFDVRFQGERLVYEISLQEALAIYGGNSPAAMTTRYVDGGFGMGKYTTPLTRGVDCPYLATYVDWHFLLESQAPKTIRDAFCVFEQNQGLPLRRHHSDLYSHYFGGLAETVLVVRSMSTLLNYDYVWDTVFHPSGAIEIRFYATGYISSAFLFGATGKYGNQVSEHTLGTVHTHSAHFKVDLDVAGLENWVWAEDMVFVPMAVPWSPEHQLQRLQVTRKLLEMEEQAAFLVGSATPRYLYLASNHSNKWGHPRGYRIQMLSFAGEPLPQNSSMARGFSWERYQLAVTQRKEEEPSSSSVFNQNDPWAPTVDFSDFINNETIAGKDLVAWVTAGFLHIPHAEDIPNTVTVGNGVGFFLRPYNFFDEDPSFYSADSIYFRGDQDAGACEVNPLACLPQAAACAPDLPAFSHGGFSHN
modifications: full-length
notes: recombinant human SSAO, full-length untagged, in CHO Flp-In cell lysate
specific activity of recombinant SSAO: 280 pmol/min/mg protein
